Publication PMC8775495

Legend:
WA20_H86K = assay: not stated; in solution; shown in Figure S1, whose legend was not shown
[1] = molecular target: recombinant Agrocybe cylindracea galectin (Agrocybe cylindracea); assay: as above

| stoichiometry N (WA20_H86K) | stoichiometry N [1] | Substance |
| --- | --- | --- |
| 2 | – | WA20_H86K |
| – | 2 | recombinant Agrocybe cylindracea galectin (natural protein) |
